In US20210087268A1:

Target: T1, TIGIT expressed on cells (TIGIT-expressing effector cell line of the Promega kit; TIGIT-overexpressing NK92 cell line) (UniProt Q495A1)
T1 sequence (looked up): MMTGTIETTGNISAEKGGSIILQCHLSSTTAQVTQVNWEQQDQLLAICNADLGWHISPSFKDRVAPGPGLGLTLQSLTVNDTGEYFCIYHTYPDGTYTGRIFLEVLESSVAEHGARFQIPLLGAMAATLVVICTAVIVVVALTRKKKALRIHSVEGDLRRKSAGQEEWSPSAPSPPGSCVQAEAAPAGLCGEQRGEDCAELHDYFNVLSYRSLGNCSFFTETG
Assay: cell-based or functional assay

10A7 antibody, sequence (VH): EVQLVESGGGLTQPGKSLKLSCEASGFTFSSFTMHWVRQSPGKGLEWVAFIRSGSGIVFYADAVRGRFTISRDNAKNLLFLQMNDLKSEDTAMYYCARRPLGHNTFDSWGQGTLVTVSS
10A7 antibody, sequence (VL): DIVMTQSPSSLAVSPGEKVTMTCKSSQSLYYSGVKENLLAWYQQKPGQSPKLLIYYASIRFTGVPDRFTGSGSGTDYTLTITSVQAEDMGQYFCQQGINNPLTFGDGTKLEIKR

binding inhibition (EC50), TIGIT/CD155 blockade assay, luminescence fold response: 752 nM
Substance: 10A7 antibody
